Reference: paper PMC3782427, “The N-Terminal Region of the Human Autophagy Protein ATG16L1 Contains a Domain That Folds into a Helical Structure Consistent with Formation of a Coiled-Coil” (PLoS ONE, 2013)

Molecular target: the molecule itself
Test: native gel or EMSA; Native-PAGE, Novex 4-20% Tris-glycine native gel, 1 ug protein a lane, before and after freeze/thawing at -80 C

B1: human ATG16L1 coiled-coil domain construct 3 (CCD3-FLAG-6His), residues M126-A207 (domain or fragment, UniProt Q676U5-1 126-207, looked up)
chain: MNEAKIAECLQTISDLETECLDLRTKLCDLERANQTLKDEYDALQITFTALEGKLRKTTEENQELVTRWMAEKAQEANRLNA
notes: human ATG16L1 isoform 1 (NP_110430.5, full length M1-Y607), coiled-coil domain, residues M126-A207; amplified from pCMV-FLAG-ATG16L1; Expressed as GST-CCD3-FLAG-6His with a TEV site between GST and the insert; Calculated molecular weight printed as 11.3 kDa; also called CCD3FH; minimal coiled-coil domain; source: E. coli Rosetta 2, purified (glutathione sepharose, on column TEV cleavage, HIC); …
B1 was tested, and the “stoichiometry N” value was 2.
